Test results reported in IntAct's records for PubMed 26245371.

Legend:
epas1_mouse Epas1 = epas1_mouse Epas1 (UniProt P97481)
arnt_mouse Arnt [1] = target: arnt_mouse Arnt (UniProt P53762)
arnt_mouse Arnt [2] = target: arnt_mouse Arnt (UniProt P53762); remark: listed apart in the source

Hif1a, Q61221-1, sequence (Q61221 whole entry): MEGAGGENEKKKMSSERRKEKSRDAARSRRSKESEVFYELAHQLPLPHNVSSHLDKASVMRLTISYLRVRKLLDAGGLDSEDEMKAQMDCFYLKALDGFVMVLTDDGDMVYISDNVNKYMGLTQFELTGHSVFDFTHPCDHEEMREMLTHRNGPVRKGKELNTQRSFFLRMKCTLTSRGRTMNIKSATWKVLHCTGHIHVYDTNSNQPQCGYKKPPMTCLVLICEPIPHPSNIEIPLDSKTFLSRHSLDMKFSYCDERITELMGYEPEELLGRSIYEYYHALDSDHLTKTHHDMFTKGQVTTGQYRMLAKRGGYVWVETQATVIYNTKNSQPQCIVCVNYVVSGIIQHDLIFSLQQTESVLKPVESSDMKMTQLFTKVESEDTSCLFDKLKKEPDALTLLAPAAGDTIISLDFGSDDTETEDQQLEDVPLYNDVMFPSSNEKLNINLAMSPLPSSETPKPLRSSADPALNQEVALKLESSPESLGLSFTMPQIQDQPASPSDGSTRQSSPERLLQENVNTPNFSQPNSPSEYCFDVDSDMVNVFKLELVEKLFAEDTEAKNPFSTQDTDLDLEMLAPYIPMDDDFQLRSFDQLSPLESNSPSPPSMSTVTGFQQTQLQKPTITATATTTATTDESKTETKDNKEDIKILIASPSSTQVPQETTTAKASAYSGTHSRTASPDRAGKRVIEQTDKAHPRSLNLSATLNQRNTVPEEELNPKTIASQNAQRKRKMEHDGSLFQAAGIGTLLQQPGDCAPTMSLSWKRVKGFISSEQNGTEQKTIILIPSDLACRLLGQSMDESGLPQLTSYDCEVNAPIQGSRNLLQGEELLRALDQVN
Hypoxia-inducible factor 1-alpha (Mus musculus), Q61221-1 R170A, sequence (Q61221 whole entry R170A): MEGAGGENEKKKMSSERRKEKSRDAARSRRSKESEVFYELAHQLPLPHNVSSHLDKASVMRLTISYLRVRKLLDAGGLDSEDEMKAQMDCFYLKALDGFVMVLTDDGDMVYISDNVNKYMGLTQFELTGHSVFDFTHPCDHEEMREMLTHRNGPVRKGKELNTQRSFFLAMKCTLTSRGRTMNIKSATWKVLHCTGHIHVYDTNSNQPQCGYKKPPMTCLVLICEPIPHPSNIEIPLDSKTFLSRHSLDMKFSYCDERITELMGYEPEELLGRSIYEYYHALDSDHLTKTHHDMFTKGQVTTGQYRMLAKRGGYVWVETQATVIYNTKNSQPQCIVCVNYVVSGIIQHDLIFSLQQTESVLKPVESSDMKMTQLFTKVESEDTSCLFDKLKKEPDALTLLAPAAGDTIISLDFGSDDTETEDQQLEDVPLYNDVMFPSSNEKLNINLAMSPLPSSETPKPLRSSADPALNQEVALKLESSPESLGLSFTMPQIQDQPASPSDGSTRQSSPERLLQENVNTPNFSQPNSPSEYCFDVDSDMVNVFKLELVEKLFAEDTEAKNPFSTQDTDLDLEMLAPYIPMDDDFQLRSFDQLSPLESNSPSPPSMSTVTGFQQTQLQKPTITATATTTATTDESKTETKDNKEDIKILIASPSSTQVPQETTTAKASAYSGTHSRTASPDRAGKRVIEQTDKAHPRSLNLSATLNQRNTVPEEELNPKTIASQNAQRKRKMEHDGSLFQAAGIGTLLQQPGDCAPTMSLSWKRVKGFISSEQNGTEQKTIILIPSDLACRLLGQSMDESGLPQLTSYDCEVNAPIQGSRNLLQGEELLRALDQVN
Hypoxia-inducible factor 1-alpha (Mus musculus), Q61221-1 V191D, sequence (Q61221 whole entry V191D): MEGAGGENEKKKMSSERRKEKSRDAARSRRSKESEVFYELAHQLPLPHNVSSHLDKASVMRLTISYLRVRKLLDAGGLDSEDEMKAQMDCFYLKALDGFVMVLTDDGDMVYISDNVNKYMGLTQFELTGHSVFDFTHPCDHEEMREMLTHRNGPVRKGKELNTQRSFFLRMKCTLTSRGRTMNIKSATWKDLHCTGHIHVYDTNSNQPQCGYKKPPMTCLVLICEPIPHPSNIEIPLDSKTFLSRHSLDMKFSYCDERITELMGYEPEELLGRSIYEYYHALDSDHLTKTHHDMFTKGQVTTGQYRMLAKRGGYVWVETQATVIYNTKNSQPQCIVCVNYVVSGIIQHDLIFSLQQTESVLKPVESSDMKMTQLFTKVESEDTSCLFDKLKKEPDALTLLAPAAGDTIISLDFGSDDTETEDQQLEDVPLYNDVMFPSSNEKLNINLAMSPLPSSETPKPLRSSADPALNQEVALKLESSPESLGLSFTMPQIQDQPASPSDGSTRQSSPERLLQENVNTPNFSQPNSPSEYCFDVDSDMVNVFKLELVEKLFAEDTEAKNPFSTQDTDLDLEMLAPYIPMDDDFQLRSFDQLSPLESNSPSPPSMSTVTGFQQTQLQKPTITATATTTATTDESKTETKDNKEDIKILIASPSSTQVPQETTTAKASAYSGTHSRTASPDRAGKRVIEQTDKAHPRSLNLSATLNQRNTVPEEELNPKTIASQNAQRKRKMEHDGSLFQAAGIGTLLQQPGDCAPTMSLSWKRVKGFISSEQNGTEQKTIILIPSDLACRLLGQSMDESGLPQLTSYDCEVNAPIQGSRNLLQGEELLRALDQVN
Hypoxia-inducible factor 1-alpha (Mus musculus), Q61221-1 R170A;V191D, sequence (Q61221 whole entry R170A/V191D): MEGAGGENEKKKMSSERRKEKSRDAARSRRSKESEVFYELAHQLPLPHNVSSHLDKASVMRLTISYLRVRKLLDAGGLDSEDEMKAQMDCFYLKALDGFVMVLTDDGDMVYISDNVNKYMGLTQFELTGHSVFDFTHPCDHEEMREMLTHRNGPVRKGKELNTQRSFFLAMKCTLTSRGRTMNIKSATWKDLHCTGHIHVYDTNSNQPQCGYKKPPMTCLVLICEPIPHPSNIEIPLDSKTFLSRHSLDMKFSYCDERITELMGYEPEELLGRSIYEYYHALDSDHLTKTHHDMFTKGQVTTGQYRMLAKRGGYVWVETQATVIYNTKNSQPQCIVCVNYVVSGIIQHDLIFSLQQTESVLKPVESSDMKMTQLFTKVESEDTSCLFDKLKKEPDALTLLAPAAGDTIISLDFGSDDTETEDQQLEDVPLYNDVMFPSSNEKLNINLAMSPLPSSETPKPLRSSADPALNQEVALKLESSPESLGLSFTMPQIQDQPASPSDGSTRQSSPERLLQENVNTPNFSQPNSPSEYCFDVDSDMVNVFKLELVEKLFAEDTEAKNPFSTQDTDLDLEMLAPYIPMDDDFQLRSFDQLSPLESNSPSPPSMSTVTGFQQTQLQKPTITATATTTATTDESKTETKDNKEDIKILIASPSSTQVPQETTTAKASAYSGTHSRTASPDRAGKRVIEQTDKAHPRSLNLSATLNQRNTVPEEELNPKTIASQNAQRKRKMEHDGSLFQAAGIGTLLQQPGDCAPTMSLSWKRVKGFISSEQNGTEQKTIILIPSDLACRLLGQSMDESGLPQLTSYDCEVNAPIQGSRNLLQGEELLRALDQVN

| effect of a mutation on the interaction (epas1_mouse Epas1) | effect of a mutation on the interaction (Hif1a, Q61221-1) | effect of a mutation on the interaction (arnt_mouse Arnt [1]) | effect of a mutation on the interaction (arnt_mouse Arnt [2]) | Substance |
| --- | --- | --- | --- | --- |
| disrupting interaction strength | decreasing interaction strength | – | – | Aryl hydrocarbon receptor nuclear translocator (Mus musculus), P53762 A171D |
| disrupting interaction strength | disrupting interaction strength | – | – | Aryl hydrocarbon receptor nuclear translocator (Mus musculus), P53762 I168D |
| disrupting interaction strength | decreasing interaction strength | – | – | Aryl hydrocarbon receptor nuclear translocator (Mus musculus), P53762 I264D |
| decreasing interaction strength | decreasing interaction strength | – | – | Aryl hydrocarbon receptor nuclear translocator (Mus musculus), P53762 I264D;V305D |
| disrupting interaction strength | disrupting interaction strength | – | – | Aryl hydrocarbon receptor nuclear translocator (Mus musculus), P53762 L112E |
| disrupting interaction strength | disrupting interaction strength | – | – | Aryl hydrocarbon receptor nuclear translocator (Mus musculus), P53762 L112E;L132E |
| disrupting interaction strength | disrupting interaction strength | – | – | Aryl hydrocarbon receptor nuclear translocator (Mus musculus), P53762 L132E |
| disrupting interaction strength | decreasing interaction strength | – | – | Aryl hydrocarbon receptor nuclear translocator (Mus musculus), P53762 L167E |
| disrupting interaction strength | decreasing interaction strength | – | – | Aryl hydrocarbon receptor nuclear translocator (Mus musculus), P53762 L167E;A171D |
| decreasing interaction strength | – | – | – | Aryl hydrocarbon receptor nuclear translocator (Mus musculus), P53762 R266A |
| decreasing interaction strength | decreasing interaction strength | – | – | Aryl hydrocarbon receptor nuclear translocator (Mus musculus), P53762 R366A |
| disrupting interaction strength | disrupting interaction strength | – | – | Aryl hydrocarbon receptor nuclear translocator (Mus musculus), P53762 R366A;N448A |
| disrupting interaction strength | disrupting interaction strength | – | – | Aryl hydrocarbon receptor nuclear translocator (Mus musculus), P53762 V136D |
| decreasing interaction strength | decreasing interaction strength | – | – | Aryl hydrocarbon receptor nuclear translocator (Mus musculus), P53762 V305D |
| – | – | decreasing interaction strength | – | Endothelial PAS domain-containing protein 1 (Mus musculus), P97481 F169D |
| – | – | decreasing interaction strength | – | Endothelial PAS domain-containing protein 1 (Mus musculus), P97481 H194A |
| – | – | decreasing interaction strength | – | Endothelial PAS domain-containing protein 1 (Mus musculus), P97481 R171A |
| – | – | disrupting interaction strength | – | Endothelial PAS domain-containing protein 1 (Mus musculus), P97481 R171A;V192D |
| – | – | decreasing interaction strength | – | Endothelial PAS domain-containing protein 1 (Mus musculus), P97481 V192D |
| – | – | – | decreasing interaction strength | Hypoxia-inducible factor 1-alpha (Mus musculus), Q61221-1 R170A |
| – | – | – | decreasing interaction strength | Hypoxia-inducible factor 1-alpha (Mus musculus), Q61221-1 R170A;V191D |
| – | – | – | decreasing interaction strength | Hypoxia-inducible factor 1-alpha (Mus musculus), Q61221-1 V191D |
